Here are results for ten molecules from US20220089776A1 (OREGON HEALTH AND SCIENCE UNIVERSITY, published 2022).

Broadly, the EC50 is the concentration giving half of the maximal effect. One may read the Kd as a measure of binding affinity in units of concentration. A lower Kd goes with a tighter complex. As a reminder, the koff is a measure of how fast the partners let go of each other. Read a low koff as slow dissociation. Broadly, the kon is the rate constant with which the complex forms. A higher kon goes with fast association.

Experiment [1] has as its target T1, human blood protein factor XII (FXII) (human, UniProt P00748 20-615).
T1 construct: mature; Single-chain zymogen as it circulates in plasma; also called human FXII; plasma-derived FXII
T1 sequence (looked up): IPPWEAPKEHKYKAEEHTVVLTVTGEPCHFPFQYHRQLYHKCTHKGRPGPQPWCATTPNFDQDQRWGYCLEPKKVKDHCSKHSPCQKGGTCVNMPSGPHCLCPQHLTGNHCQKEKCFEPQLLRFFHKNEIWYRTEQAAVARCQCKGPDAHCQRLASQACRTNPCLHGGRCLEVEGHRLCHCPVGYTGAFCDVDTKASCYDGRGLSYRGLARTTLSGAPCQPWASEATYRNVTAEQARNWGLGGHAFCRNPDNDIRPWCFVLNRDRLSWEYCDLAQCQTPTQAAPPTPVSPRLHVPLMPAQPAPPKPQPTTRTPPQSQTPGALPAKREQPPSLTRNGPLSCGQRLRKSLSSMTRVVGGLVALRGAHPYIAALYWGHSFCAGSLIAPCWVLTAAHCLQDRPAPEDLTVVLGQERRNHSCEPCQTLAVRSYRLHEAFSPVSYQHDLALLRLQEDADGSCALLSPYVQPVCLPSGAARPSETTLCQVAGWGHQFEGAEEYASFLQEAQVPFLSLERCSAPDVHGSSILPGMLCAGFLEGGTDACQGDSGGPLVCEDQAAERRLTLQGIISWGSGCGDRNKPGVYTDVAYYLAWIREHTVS
Nature of the experiment: ELISA, human FXII coated at 1 µg/mL, goat anti-human IgG-HRP detection. How it is done: One μg/mL of human FXII (Enzyme Research Labs, #HFXII 1212) was coated on the ELISA plate at 4° C. overnight. The coated plate was blocked with 2% BSA in phosphate buffered saline (PBS) at room temperature for one hour and then washed three times with PBS. All antibodies to be tested (PP13892-PP13901 or human Fc isotype control) were diluted with sample diluent in an 11 point, 5-fold, serial dilution starting at 10 μg/mL. Each sample was run in duplicate. Each concentration was incubated on the coated plate for one hour at room temperature and then washed three times with PBS. Bound antibody was detected with goat-anti-human IgG-HRP and washed six times with PBS. TMB substrate was added to each well and the reaction was stopped with 1M HCl. Absorbance was read at 450 nm.
EC₅₀ for the concentration response curve was calculated by plotting the OD measured at 450 nm against the logarithm of antibody concentration and the EC₅₀ was calculated by nonlinear regression analysis.
On the technique in general: An ELISA detects its analyte on a solid surface through an enzyme-linked reagent.

In experiment [2] the target is T1, human blood protein factor XII (FXII). Nature of the experiment: BLI (Octet RED96), antibody on anti-human Fc biosensors, antigen in solution, 1:1 fit. As to the method: Multi-concentration kinetic experiments were performed on the Octet RED96 system (ForteBio). Anti-human Fc biosensors (ForteBio) were hydrated in sample diluent (0.1% BSA in PBS and 0.02% Tween 20) and preconditioned in pH 1.9 Glycine. Antigen was diluted by a 7-point, 3-fold serial dilution starting at 200 nM with sample diluent. Antibodies were diluted to 1μg/ml with sample diluent and then immobilized onto anti-human Fc biosensors. After baselines were established for 30 seconds in sample diluent, the biosensors were moved to wells containing serially diluted antigen to measure the association and dissociation. […] The binding affinities were characterized by fitting the kinetic sensorgrams to a monovalent binding model (1:1 binding).
In general terms: Biolayer interferometry detects binding as a change in optical thickness at a sensor tip.

B1: Chimera (chimeric parental antibody) PP13892 (antibody, human IgG4, V domains shown)
VH: DVQLQESGPDLVKPSQSLSLTCTVTGYSITSGYSWHWIRQFPGNNLEWMGYIQYSGNTNSNPSLKSRISITRDTSKNQFFLHLNSVTTEDTATYYCARWGSFDYWGQGTTLTVSS
VL: QIVLTQSPAIMSASPGEKVTMTCSASSSVNYMHWYQQKSGTSPKRWIYDTSKLASGVPARFSGSGSGTSYSLTISSMEAGDAATYYCQQWSGNPPTFGGGTILEIK
notes: Variable regions of murine AB053 on the same human IgG4 (S241P hinge modified) backbone as the humanized antibodies; also called H7879 + L7879
In the case of B1, in experiment [1], a half-maximal response (EC50) required 9.04 ng/mL. In experiment [2], the Kd was 0.24 nM, the koff was 0.00011 s⁻¹ and the kon came out at 460000 M⁻¹ s⁻¹.

B2: humanized 5C12 antibody HC1 + LC1 (PP13893) (antibody, human IgG4 S228P, kappa, V domains shown)
VH: QVQLQESGPGLVKPSQTLSLTCTVSGYSITSGYSWHWIRQHPGKGLEWIGYIQYSGNTNSNPSLKSRVTISRDTSKNQFSLKLSSVTAADTAVYYCARWGSFDYWGQGTLVTVSS
VL: EIVLTQSPATLSLSPGERATLSCRASSSVNYLHWYQQKPGQAPRRLIYDTSKLATGIPARFSGSGSGTDYTLTISSLEPEDFAVYYCQQWSGNPPTFGGGTKVEIKR
notes: Human IgG4 (S241P hinge modified), expressed in HEK293; also called AB054; h5C12
As for B2, the response in experiment [1] was half-maximal at 9.12 ng/mL (EC50). Also, in experiment [2], the Kd was 0.3 nM, the koff is 0.00016 s⁻¹ and the kon came out at 530000 M⁻¹ s⁻¹.

B3: humanized 5C12 antibody HC1 + LC3 (PP13895) (antibody, human IgG4 S228P, kappa, V domains shown)
VH: QVQLQESGPGLVKPSQTLSLTCTVSGYSITSGYSWHWIRQHPGKGLEWIGYIQYSGNTNSNPSLKSRVTISRDTSKNQFSLKLSSVTAADTAVYYCARWGSFDYWGQGTLVTVSS
VL: DIVLTQTPATLSLSPGERATLSCRASSSVNYLHWYQQKPGQAPKRLIYDTSKLATGIPARFSGSGSGTDYTLTISSLEPEDFAVYYCQQWSGNPPTFGQGTRLEIKR
notes: Human IgG4 (S241P hinge modified), expressed in HEK293; also called H7880 + L7882
Take B3: in experiment [1], the EC50 amounted to 9.02 ng/mL. Further, in experiment [2], the Kd worked out at 0.41 nM, the koff was 0.0002 s⁻¹ and the kon stood at 500000 M⁻¹ s⁻¹.

B4: humanized 5C12 antibody HC2 + LC3 (PP13898) (antibody, human IgG4 S228P, kappa, V domains shown)
VH: DVQLQESGPGLVKPSQTLSLTCTVTGYSITSGYSWHWIRQHPGKGLEWMGYIQYSGNTNSNPSLKSRVTISRDTSKNQFSLKLSSVTAADTAVYYCARWGSFDYWGQGTLVTVSS
VL: DIVLTQTPATLSLSPGERATLSCRASSSVNYLHWYQQKPGQAPKRLIYDTSKLATGIPARFSGSGSGTDYTLTISSLEPEDFAVYYCQQWSGNPPTFGQGTRLEIKR
notes: Human IgG4 (S241P hinge modified), expressed in HEK293; also called H7881 + L7882
The molecule B4 had an EC50 in experiment [1] of 8.09 ng/mL. In experiment [2], binding was characterised by a dissociation constant (Kd) of 0.31 nM, the koff turned out to be 0.00016 s⁻¹ and the kon stood at 500000 M⁻¹ s⁻¹.

B5: humanized 5C12 antibody HC2 + LC2 (PP13897) (antibody, human IgG4 S228P, kappa, V domains shown)
VH: DVQLQESGPGLVKPSQTLSLTCTVTGYSITSGYSWHWIRQHPGKGLEWMGYIQYSGNTNSNPSLKSRVTISRDTSKNQFSLKLSSVTAADTAVYYCARWGSFDYWGQGTLVTVSS
VL: EIVLTQSPATLSLSPGERATLSCRASSSVNYLHWYQQKPGQAPKRWIYDTSKLATGIPARFSGSGSGTDYTLTISSLEPEDFAVYYCQQWSGNPPTFGGGTKVEIKR
notes: Human IgG4 (S241P hinge modified), expressed in HEK293; also called H7881 + L7881
Molecule B5 had an EC50 in experiment [1] of 8.78 ng/mL. In experiment [2], this molecule displayed a Kd of 0.15 nM, a koff of 9e-05 s⁻¹ and a kon of 620000 M⁻¹ s⁻¹.

B6: humanized 5C12 antibody HC3 + LC1 (PP13899) (antibody, human IgG4 S228P, kappa, V domains shown)
VH: DVQLQESGPGLVKPSETLSLTCTVSGYSITSGYSWHWIRQPPGKGLEWIGYIQYSGNTNSNPSLKSRVTISRDTSKNQFSLRLSSVTAADTAVYYCARWGSFDYWGQGTMVTVSS
VL: EIVLTQSPATLSLSPGERATLSCRASSSVNYLHWYQQKPGQAPRRLIYDTSKLATGIPARFSGSGSGTDYTLTISSLEPEDFAVYYCQQWSGNPPTFGGGTKVEIKR
notes: Human IgG4 (S241P hinge modified), expressed in HEK293; also called H7882 + L7880
B6 gave a half-maximal effective concentration (EC50) in experiment [1] of 8.48 ng/mL. In experiment [2], this molecule showed a Kd of 0.27 nM, a koff of 0.00015 s⁻¹ and a kon of 560000 M⁻¹ s⁻¹.

B7: humanized 5C12 antibody HC2 + LC1 (PP13896) (antibody, human IgG4 S228P, kappa, V domains shown)
VH: DVQLQESGPGLVKPSQTLSLTCTVTGYSITSGYSWHWIRQHPGKGLEWMGYIQYSGNTNSNPSLKSRVTISRDTSKNQFSLKLSSVTAADTAVYYCARWGSFDYWGQGTLVTVSS
VL: EIVLTQSPATLSLSPGERATLSCRASSSVNYLHWYQQKPGQAPRRLIYDTSKLATGIPARFSGSGSGTDYTLTISSLEPEDFAVYYCQQWSGNPPTFGGGTKVEIKR
notes: Human IgG4 (S241P hinge modified), expressed in HEK293; also called H7881 + L7880
B7 showed a half-maximal effective concentration (EC50) in experiment [1] of 8.24 ng/mL. In experiment [2], this molecule displayed a Kd of 0.44 nM, a koff of 0.00022 s⁻¹ and a kon of 500000 M⁻¹ s⁻¹.

B8: humanized 5C12 antibody HC3 + LC3 (PP13901) (antibody, human IgG4 S228P, kappa, V domains shown)
VH: DVQLQESGPGLVKPSETLSLTCTVSGYSITSGYSWHWIRQPPGKGLEWIGYIQYSGNTNSNPSLKSRVTISRDTSKNQFSLRLSSVTAADTAVYYCARWGSFDYWGQGTMVTVSS
VL: DIVLTQTPATLSLSPGERATLSCRASSSVNYLHWYQQKPGQAPKRLIYDTSKLATGIPARFSGSGSGTDYTLTISSLEPEDFAVYYCQQWSGNPPTFGQGTRLEIKR
notes: Human IgG4 (S241P hinge modified), expressed in HEK293; also called H7882 + L7882
With B8, in experiment [1], the response was half-maximal at 9.47 ng/mL (EC50). In experiment [2], the Kd came out at 0.35 nM, the off-rate constant (koff) amounted to 0.00018 s⁻¹ and the on-rate constant (kon) stood at 530000 M⁻¹ s⁻¹.

B9: humanized 5C12 antibody HC1 + LC2 (PP13894) (antibody, human IgG4 S228P, kappa, V domains shown)
VH: QVQLQESGPGLVKPSQTLSLTCTVSGYSITSGYSWHWIRQHPGKGLEWIGYIQYSGNTNSNPSLKSRVTISRDTSKNQFSLKLSSVTAADTAVYYCARWGSFDYWGQGTLVTVSS
VL: EIVLTQSPATLSLSPGERATLSCRASSSVNYLHWYQQKPGQAPKRWIYDTSKLATGIPARFSGSGSGTDYTLTISSLEPEDFAVYYCQQWSGNPPTFGGGTKVEIKR
notes: Human IgG4 (S241P hinge modified), expressed in HEK293; also called H7880 + L7881
For the molecule B9, the EC50 in experiment [1] is 8.22 ng/mL. Besides, in experiment [2], the Kd is 0.3 nM, the koff is 0.00016 s⁻¹ and the kon is 530000 M⁻¹ s⁻¹.

B10: humanized 5C12 antibody HC3 + LC2 (PP13900) (antibody, human IgG4 S228P, kappa, V domains shown)
VH: DVQLQESGPGLVKPSETLSLTCTVSGYSITSGYSWHWIRQPPGKGLEWIGYIQYSGNTNSNPSLKSRVTISRDTSKNQFSLRLSSVTAADTAVYYCARWGSFDYWGQGTMVTVSS
VL: EIVLTQSPATLSLSPGERATLSCRASSSVNYLHWYQQKPGQAPKRWIYDTSKLATGIPARFSGSGSGTDYTLTISSLEPEDFAVYYCQQWSGNPPTFGGGTKVEIKR
notes: Human IgG4 (S241P hinge modified), expressed in HEK293; also called H7882 + L7881
B10 came in with a concentration giving a half-maximal response (EC50) in experiment [1] of 7.69 ng/mL. In experiment [2], this molecule showed a Kd of 0.32 nM, a koff of 0.00019 s⁻¹ and an association rate constant (kon) of 580000 M⁻¹ s⁻¹.
